Experiments:
soybean seeds = experiment: Fatty acid composition of seeds of regenerated transgenic soybean plants; format: in vivo; conditions: for Eleostearic / Other / 16:0 / 18:0 / 18:1 / 18:2 / 18:3 / α-Parinaric: single soybean seed; for Eleostearic: includes cis-trans isomers of α-eleostearic acid (<1.5 wt %); for Other: primarily 20:0, 20:1, 22:0, and 22:1; for 16:0 / 18:0 / 18:1 / 18:2 / 18:3 / α-Parinaric: % of total oil weight
Description: To examine the ability of the Momordica fatty acid modifying enzyme associated with conjugated double bond synthesis to function in seeds of crop plants, transgenic soybean embryos expressing this enzyme were regenerated into plants. The fatty acid compositions of segregating seeds from these plants were examined by GC and GC-MS as described in Example 4

[1] = system: Saccharomyces cerevisiae INVSc1 cells; experiment: Expression in Saccharomyces cerevisiae, accumulation of fatty acids with conjugated double bonds; format: cell-based; conditions: 4 days at 16°
Description: The Impatiens balsamina clone ImpH8Fad2 was partially digested with the restriction enzymes EcoRI and XhoI. A resulting 1.5 kb DNA fragment containing the entire cDNA insert was purified by agarose gel electrophoresis. The cDNA insert was obtained from agarose gel by digestion with GELase™ (Epicentre Technologies) according to the manufacturer's instructions, ethanol precipitated, dried and resuspended in 20 μL of water. The purified cDNA was ligated into the EcoRI and XhoI sites of the Saccharomyces cerevisiae expression vector pYES2 (Invitrogen) using T4 DNA ligase (New England Biolabs). The resulting plasmid pYes2/ImpH8Fad2 was introduced into Saccharomyces cerevisiae INVSc1 (=Invitrogen)cells by lithium acetate-mediated transformation [Sherman F, Fink G R, Hicks J B, Methods in Yeast Genetics: A Laboratory Course Manual, Cold Spring Harbor Lab. Press, Plainview, N.Y. (1987)]. Transformed cells were selected by their ability to grow in the absence of uracil. Individual colonies of transformed cells were then grown for 2 days at 30° in growth media lacking uracil [0.17% (w/v) yeast nitrogen base without amino acids (Difco), 0.5% (w/v) ammonium sulfate, and 0.18% SC-URA (Bio101)] supplemented with glycerol and glucose to a final concentration of 5% (v/v) and 0.5% (w/v), respectively. Cells were then washed twice in the growth media described above that was supplemented instead with galactose to a final concentration of 2% (w/v). The washed cells were then diluted to O.D.600≈0.2 in the galactose-containing growth media that also contained Tergitol NP-40 (Sigma) at a concentration of 0.2% (w/v). Aliquots of these cells were grown without exogenous fatty acids or with the addition of either linoleic acid (18:2Δ^9cis,12cis) or α-linolenic acid (18:3Δ^9cis,12cis,15cis) at a final concentration of 2 mM. Following 4 days of growth at 16°, the S. cerevisiae cells were harvested and examined for the accumulation of fatty acids containing conjugated double bonds as described in Example 4. In cells grown in media containing linoleic acid, α-eleostearic acid was detected in amounts of up to 0.6% (w/w) of the total fatty acids.

[2] = media containing linoleic acid 2 mM
[3] = media containing α-linolenic acid 2 mM

B1: MomFad2: Momordica charantia fatty acid modifying enzyme associated with conjugated double bond formation, SEQ ID NO:4, cDNA SEQ ID NO:3 (protein, listed as Momordica charantia)
chain: MGGRGAIGVLRNGGGPKKKMGPGQGLGPGERITHARPPFSISQIKKAIPPHCFQRSLRRSFSYLLSDIALVSAFYYVADTYFHRLPHPLLHYLAWPVYWFCQGAVLTGMWGIAHDCGHHAFSDYQLVDDVVGFLIHSLVFVPYFSFKISHRRHHSNTSSVDRDEVFVPKPKAKMPWYFKYLTNPPARVFIIFITLTLGWPMYLTFNISGRYYGRFTSHFDPNSPIFSPKERVLVHISNAGLVATGYLLYRIAMAKGVGWLIRLYGVPLIVLNACVVLITALQHTHPSFPYYDSTEWDWLRGNLVTVDRDYGPIMNRVFHHITDTHVVHHLFPSMPHYNGKEATVAAKRILGEYYQFDGTPIWKAAWREFRECVYVEPDEDDGATSGSSSKGVFWYHNKL
Soybean seeds; Line 1
  Eleostearic: 13.9 Weight %
  Other: <2.0 Weight %
Soybean seeds; Line 2
  Eleostearic: 13.4 Weight %
  Other: <2.2 Weight %
Soybean seeds; Line 3
  Eleostearic: 11.6 Weight %
  Other: <1.5 Weight %
Soybean seeds; transgenic Line 1
  16:0: 8.8 Weight %
  18:0: 3.6 Weight %
  18:1: 44.5 Weight %
  18:2: 25.7 Weight %
  18:3: 1.0 Weight %
  α-Parinaric: 0.5 Weight %
Soybean seeds; transgenic Line 2
  16:0: 8.4 Weight %
  18:0: 3.5 Weight %
  18:1: 48.9 Weight %
  18:2: 22.3 Weight %
  18:3: 0.7 Weight %
  α-Parinaric: 0.4 Weight %
Soybean seeds; transgenic Line 3
  16:0: 9.7 Weight %
  18:0: 3.8 Weight %
  18:1: 47.2 Weight %
  18:2: 24.7 Weight %
  18:3: 1.0 Weight %
  α-Parinaric: 0.5 Weight %
Soybean seeds; transgenic soybean seeds
  α-eleostearic acid of the total fatty acids: more than 13%
  α-parinaric acid of the total fatty acids: approximately 0.5%
Soybean seeds; transgenic soybean seeds, about 18 wt % in wild-type
  oleic acid (18:1) content of the total fatty acids: ~50 wt %
Soybean seeds; transgenic soybean seeds, nearly 9 wt % in wild-type
  linolenic acid (18:3) content of the total fatty acids: about 1 wt %

B2: ImpFad2: Impatiens balsamina fatty acid modifying enzyme associated with conjugated double bond formation, SEQ ID NO:2, cDNA SEQ ID NO:1 (protein, listed as Impatiens balsamina)
chain: MGEVGPTNRTKTKLDKQQESENRVPHEPPPFTLSDLKKAIPPHCFERSLVKSFYHVIHDIIILSFFYYVAANYIPMLPQNLRYVAWPIYWAIQGCVQLGILVLGHECGHHAFSDYQWVDDMVGFVLHSSQLIPYFSWKHSHRRHHSNTASIERDEVYPPAYKNDLPWFAKYLRNPVGRFLMIFGALLFGWPSYLLFNANGRLYDRFASHYDPQSPIFNNRERLQVIASDVGLVFAYFVLYKIALAKGFVWLICVYGVPYVILNGLIVLITFLQHTHPNLPRYDLSEWDWLRGALSTVDRDYGMLNKVFHNVTDTHLVHHLFTTMPHYRAKEATEVIKPILGDYYKFDDTPFLKALWKDMGKCIYVESDVPGKNKGVYWYNNDI
[1]; [2]
  α-eleostearic acid of the total fatty acids: up to 0.6 % (w/w)
  α-parinaric acid detection: no α-parinaric acid was detected
[1]; [3]
  α-eleostearic acid detection: no α-eleostearic acid was detected
  α-parinaric acid of the total fatty acids: up to 0.9 % (w/w)

Reference: patent US7244563B2, “Genes for plant fatty acid modifying enzymes associated with conjugated double bond formation” (E. I. du Pont de Nemours and Company, priority 2002, dated 2007)
